# Residue numbers refer to the chain shown, from its start. In names and notes the source's numbering stands.
# B1: ETA, wild type, as used in the size exclusion chromatography analysis with Fab301, P25101 E234A (protein)
# chain: DNPERYSTNLSNHVDDFTTFRGTELSFLVTTHQPTNLVLPSNGSMHNYCPQQTKITSAFKYINTVISCTIFIVGMVGNATLLRIIYQNKCMRNGPNALIASLALGDLIYVVIDLPINVFKLLAGRWPFDHNDFGVFLCKLFPFLQKSSVGITVLNLCALSVDRYRAVASWSRVQGIGIPLVTAIEIVSIWILSFILAIPEAIGFVMVPFEYRGAQHKTCMLNATSKFMEFYQDVKDWWLFGFYFCMPLVCTAIFYTLMTCEMLNRRNGSLRIALSEHLKQRREVAKTVFCLVVIFALCWFPLHLSRILKKTVYNEMDKNRCELLSFLLLMDYIGINLATMNSCINPIALYFVSKKFKNCFQSCLCCCCYQSKSLMTSVPMNGTSIQWKNHDQNNHNTDRSSHKDSMN
# B2: ETA, wild type, as used in the size exclusion chromatography analysis with Fab301, P25101 R232A (protein)
# chain: B1 chain with R212A, A214E
# B3: ETA, wild type, as used in the size exclusion chromatography analysis with Fab301, P25101 F229A (protein)
# chain: B1 chain with F209A, A214E
# B4: ETA, wild type, as used in the size exclusion chromatography analysis with Fab301, P25101 Q235A (protein)
# chain: B1 chain with A214E, Q215A
# B5: ETA, wild type, as used in the size exclusion chromatography analysis with Fab301, P25101 Y231A (protein)
# chain: B1 chain with Y211A, A214E
# B6: ETA, wild type, as used in the size exclusion chromatography analysis with Fab301, P25101 E230A (protein)
# chain: B1 chain with E210A, A214E
# B7: ETA, wild type, as used in the size exclusion chromatography analysis with Fab301, P25101 G233A (protein)
# chain: B1 chain with G213A, A214E
# Target: Fab301, Fab fragment of the anti-ETA monoclonal antibody Getagozumab
# Experiment: size exclusion chromatography
# Details: chain shown with the change;; parent: est. 0 min; read off a plot
# Sequence of Fab301, Fab fragment of the anti-ETA monoclonal antibody Getagozumab (chain, as listed by the source, chain 1 of 2): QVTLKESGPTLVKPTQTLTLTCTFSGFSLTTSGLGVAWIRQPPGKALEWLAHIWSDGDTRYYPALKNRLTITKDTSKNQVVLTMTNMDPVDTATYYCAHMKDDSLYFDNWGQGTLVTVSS
# Sequence of Fab301, Fab fragment of the anti-ETA monoclonal antibody Getagozumab (chain, as listed by the source, chain 2 of 2): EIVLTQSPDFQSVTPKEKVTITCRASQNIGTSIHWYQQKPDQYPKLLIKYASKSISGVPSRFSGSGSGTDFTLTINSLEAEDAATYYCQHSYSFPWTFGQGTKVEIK
row,Binder,other: Δt (SEC retention time of mutant–Fab301 complex minus WT–Fab301 complex) [min]
1,B1,0.019
2,B2,0.054
3,B3,-0.004
4,B4,0.023
5,B5,0.039
6,B6,0.026
7,B7,0.056

# Reference: paper PMC11286772, “Structural basis of antagonist selectivity in endothelin receptors” (Cell Discovery, 2024)
